Patent publication US8980614B2, “Staphylococcus haemolyticus prophage φSH2 endolysin is lytic for Staphylococcus aureus” (The United States of America, as represented by The …, priority 2012, dated 2015)

B1: C1: CHAP plus amidase domain, lacks SH3b (1-397), SEQ ID NO:16 (protein)
chain: MKTQAEINKRLDAYRKGTVDSPYRVKVWTSYDNRFYPMEPGCIDVDKSFHAQCADLTIDYILWLTDNEFRIRGNAKDAINPKKNKLPEGWKIVLNRPSTVPRKGWIAVFTDGTYWEYGHIGMVYDGGNTSRFQILEQNWNGWANKKPSLRWDNYYGLTHFIVPPVAKENKAVSSSKQQAPKQKVKKASTKKALPKITKHITGYNMDKRGYNPKGVVLHNDAGGMNYKQYYNNLVNANYDRLARGIAHAYVDRTGIWEAIDESRIAWHVADGTRPGSGNHDFYGIEVNQSLRASDKEFLENEQAVFQFAAEKLKKWGLPANRNTVRLHNEFSQTSCPHRSMVLHTGLDPLYHSITEHARLKLKDYFIKQIRAYMDGKKPTSKVVVSKPGSASTPATRKLEHHHHHH
modifications: Bacteriophage Phi SH2
B2: B1: Fusion of intact φSH2 CHAP and SH3b domains (1-166 + 341-493), SEQ ID NO:12 (protein)
chain: MKTQAEINKRLDAYRKGTVDSPYRVKVWTSYDNRFYPMEPGCIDVDKSFHAQCADLTIDYILWLTDNEFRIRGNAKDAINPKKNKLPEGWKIVLNRPSTVPRKGWIAVFTDGTYWEYGHIGMVYDGGNTSRFQILEQNWNGWANKKPSLRWDNYYGLTHFIVPPVALEVLHTGLDPLYHSITEHARLKLKDYFIKQIRAYMDGKKPTSKVVVSKPGSASTPATRKDANGYRENPHGTLYKEEHATFTANANIITRYVGPFTNMPQAGILKAGQTIIYDEVMKQDGYIWVGYTAYNGKRVYLPVRKWNRETDSVGKLWGVISLEHHHHHH
modifications: Bacteriophage Phi SH2
B3: E1: Amidase plus SH3b domain (178-493), SEQ ID NO:24 (protein)
chain: MQAPKQKVKKASTKKALPKITKHITGYNMDKRGYNPKGVVLHNDAGGMNYKQYYNNLVNANYDRLARGIAHAYVDRTGIWEAIDESRIAWHVADGTRPGSGNHDFYGIEVNQSLRASDKEFLENEQAVFQFAAEKLKKWGLPANRNTVRLHNEFSQTSCPHRSMVLHTGLDPLYHSITEHARLKLKDYFIKQIRAYMDGKKPTSKVVVSKPGSASTPATRKDANGYRENPHGTLYKEEHATFTANANIITRYVGPFTNMPQAGILKAGQTIIYDEVMKQDGYIWVGYTAYNGKRVYLPVRKWNRETDSVGKLWGVISLEHHHHHH
modifications: Bacteriophage Phi SH2
B4: D1: Isolated amidase domain (178-397), SEQ ID NO:20 (protein)
chain: MQAPKQKVKKASTKKALPKITKHITGYNMDKRGYNPKGVVLHNDAGGMNYKQYYNNLVNANYDRLARGIAHAYVDRTGIWEAIDESRIAWHVADGTRPGSGNHDFYGIEVNQSLRASDKEFLENEQAVFQFAAEKLKKWGLPANRNTVRLHNEFSQTSCPHRSMVLHTGLDPLYHSITEHARLKLKDYFIKQIRAYMDGKKPTSKVVVSKPGSASTPATRKLEHHHHHH
modifications: Bacteriophage Phi SH2

Tests used:
[1] = tested on: S. aureus Newman cells; assay: Zymogram with S. aureus Newman cells embedded in the gel; assay type: cell-based; details: 5 μg protein
Description: All purified proteins were analyzed with 15% SDS-PAGE, using a Kaleidoscope Precision Plus Protein Standard (BioRad, Hercules, Calif.). For zymograms, a 300 mL culture volume equivalent of live mid-log phase (OD600nm=0.4-0.6) cells of S. aureus strain Newman was embedded in the gel during polymerization. The protein samples were boiled in Laemmli sample buffer (BioRad) with β-mercaptoethanol, and electrophoresed with identical buffers and voltage for one hour in both the SDS-PAGE and the zymogram using a Mini-Protean TETRA gel system (BioRad). SDS gels were Coomassie stained and zymograms were washed in excess water and further incubated in deionized water for 60 min, followed by incubation in 10 mM Tris, pH 8.0 with 150 mM or 300 mM NaCl for 80 min. Areas of clearing in the turbid zymogram gel indicate a lytic protein in the gel.

[2] = tested on: S. aureus Newman cells; assay: Turbidity reduction assay; assay type: cell-based, Staphylococcus aureus; details: 1 μM protein; for lytic (specific) activity compared with the full length φSH2 lysin: at optimum salt concentration; for lytic activity in turbidity reduction assays (in words): different NaCl concentrations
Description: The turbidity reduction assay measures a decrease in optical density of a bacterial suspension due to lysis of the target bacteria by a lytic protein. The assays were performed in a 96-well dish format essentially as described previously (Donovan et al. 2006, supra). In order to reduce the variability of the assay, frozen stocks of S. aureus Newman substrate cells were prepared in a large batch as described by Becker et al. (2009b, supra). Immediately prior to the assay, the frozen cells were thawed, washed, and resuspended in the desired assay buffer such that when 100 μl of cell suspension were added to 100 μl of lysis buffer+/−protein, the final suspension has an OD600nm of ˜1.0.
Protein constructs were assayed at a concentration of 1 μM, and the assay was performed at room temperature, measuring the OD600nm at 1 min intervals for 45 min. Buffer without enzyme served as the control. The steepest slopes of the resulting lysis curves, which correspond to the lytic activities of the proteins, were determined by a sliding window over each group of three consecutive time points for the entire 45 min period. Specific activities were expressed as ΔOD600nm/min/μM, and the “no enzyme” control value was subtracted from each experimental value.
In order to determine the effect of salt concentration on lytic activity, turbidity reduction assays were performed in 10 mM Tris buffers at pH 7.5 with varying NaCl concentrations between 0 mM and 600 mM. Accordingly, the influence of pH was determined by using a series of different buffers with pH values ranging from 3.5 to 10.0. Citrate buffers were used for pH 3.5, 4.5, 5.5, and 6.0, MOPS buffers for pH 6.5, 7.0, and 7.5, Tris buffers for pH 8.0 and 9.0, and Carbonate/bicarbonate buffer for pH 10.0. The concentration of the buffer substance in all buffers used was 20 mM, and the NaCl concentration was 200 mM. To test the effect of bivalent metal ions, assays were performed in 10 mM Tris, 200 mM NaCl, pH 7.5 supplemented with MgCl2, MnCl2, or CaCl2 at different concentrations (0.1 mM, 1 mM, 10 mM), buffer without metal ions serving as control.

[3] = after incubation in deionized water for 60 min
[4] = water 60 min, then 10 mM Tris, 150 mM NaCl, pH 8.0 up to 80 min

Row | Molecule | lysis in zymogram [1, 3] | lysis in zymogram [1, 4] | lytic (specific) activity compared with the full length φSH2 lysin [2] | lytic activity in turbidity reduction assays (in words) [2] | lysis in zymogram ([1]; water 60 min, then 10 mM Tris, 300 mM NaCl, pH 8.0 for 80 min)
1 | B1 | faint zones of lysis | considerably weaker | about half the activity | drastically reduced activity | 
2 | B2 | faint zones of lysis | considerably weaker |  | completely abolished its activity | 
3 | B3 |  | only very faint lysis | about half the activity |  | 
4 | B4 |  |  |  | only background levels of activity | pronounced lytic band
